Substrate in the data set: CN=C(NC)NCCC[C@H](N)C(=O)O
The data set is described as follows: [3H]SDMA uptake kinetics (Km) and efflux in HEK-OATP4C1 cells. The class given is cell-based, Homo sapiens.

B1: OATP4C1 (Homo sapiens) (protein)
chain: MKSAKGIENLAFVPSSPDILRRLSASPSQIEVSALSSDPQRENSQPQELQKPQEPQKSPEPSLPSAPPNVSEEKLRSLSLSEFEEGSYGWRNFHPQCLQRCNTPGGFLLHYCLLAVTQGIVVNGLVNISISTVEKRYEMKSSLTGLISSSYDISFCLLSLFVSFFGERGHKPRWLAFAAFMIGLGALVFSLPQFFSGEYKLGSLFEDTCVTTRNSTSCTSSTSSLSNYLYVFILGQLLLGAGGTPLYTLGTAFLDDSVPTHKSSLYIGTGYAMSILGPAIGYVLGGQLLTIYIDVAMGESTDVTEDDPRWLGAWWIGFLLSWIFAWSLIIPFSCFPKHLPGTAEIQAGKTSQAHQSNSNADVKFGKSIKDFPAALKNLMKNAVFMCLVLSTSSEALITTGFATFLPKFIENQFGLTSSFAATLGGAVLIPGAALGQILGGFLVSKFRMTCKNTMKFALFTSGVALTLSFVFMYAKCENEPFAGVSESYNGTGELGNLIAPCNANCNCSRSYYYPVCGDGVQYFSPCFAGCSNPVAHRKPKVYYNCSCIERKTEITSTAETFGFEAKAGKCETHCAKLPIFLCIFFIVIIFTFMAGTPITVSILRCVNHRQRSLALGIQFMVLRLLGTIPGPIIFGFTIDSTCILWDINDCGIKGACWIYDNIKMAHMLVAISVTCKVITMFFNGFAIFLYKPPPSATDVSFHKENAVVTNVLAEQDLNKIVKEG
notes: HEK293 cells stably expressing human OATP4C1
On to B1, for which the Km came to 70 µM.

The values above are taken from publication PMC12187869, “Transport of the uremic toxin symmetric dimethylarginine (SDMA) by renal transport proteins” (Amino Acids, 2025).
